We go through 7 molecules from PMC11543927, “Subtleties in Clathrin heavy chain binding boxes provide selectivity among adaptor proteins of budding yeast” (Nature Communications, 2024).

As usually defined, the stoichiometry N is a count of units in the complex or per binding partner.

To fix the notation:
B1: Yap1802 CBM peptide (NPNLIDI) (peptide)
peptide: NPNLIDI
notes: source: synthetic peptide, bought: NovoProLabs
B2: Saccharomyces cerevisiae clathrin heavy chain N-terminal domain (ScChc-NTD, 1-369) (domain or fragment, UniProt P22137 1-369, looked up)
chain: MSDLPIEFTELVDLMSLGISPQFLDFRSTTFESDHFVTVRETKDGTNSVAIVDLAKGNEVTRKNMGGDSAIMHPSQMVISVRANGTIVQIFNLETKSKLKSFTLDEPVIFWRWLSETTLGFVTARSILTSNVFDGNVNAKPQLLTLRHANLNNTQIINFVANKNLDWFAVVGILQENGRIAGRIQLFSKQRNISQAIDGHVAIFTNILLEGNGSTPVQVFVTGNRNATTGAGELRIIEIDHDASLPSQYQKETTDIFFPPDATNDFPIAVQVSEKYGIIYLLTKYGFIHLYELETGTNLFVNRITAESVFTAAPYNHENGIACINKKGQVLAVEISTSQIVPYILNKLSNVALALIVATRGGLPGADDL
notes: Clathrin heavy chain N-terminal domain, Saccharomyces cerevisiae, residues 1-369; pETM-30 vector with a His-GST tag and a TEV cleavage site; also called WT NTD; source: E. coli BL21 (DE3), purified (Ni-NTA, TEV cleavage, reverse Ni-NTA, SEC)
B3: Yap1801 CBM peptide (NLNLIDM) (peptide)
peptide: NLNLIDM
notes: as for B1
B4: Apl2.1 CBM peptide (SQDLLDLF) (peptide)
peptide: SQDLLDLF
notes: also called LLDLF peptide; source: synthetic peptide, bought: NovoProLabs
B5: Ent5.1 CBM peptide (IPDLIDLDD) (peptide)
peptide: IPDLIDLDD
notes: also called Ent5.1 LIDL motif; LIDL peptide; source: synthetic peptide, bought: NovoProLabs
B6: Ent2 endogenously tagged with mNeonGreen (Ent2-mNeonGreen) (natural protein, UniProt Q05785 1-613, looked up)
chain: MSKQFVRSAKNMMKGYSSTQVLVRDATANDSRTPSIDTLDDLAQRSYDSVDFFEIMDMLDKRLNDKGKYWRHVAKSLTVLDYLVRFGSENCVLWCRENFYVIKTLREFRHENESGFDEGQIIRVKAKELVSLLNDEERLREERSMNTRNRRANRAARPRPRRQRTRSNPHDSSPSYQDDLEKALEESRITAQEDEQRRRELAQYDDEDPDFQAALQLSKEEEELKQLQELQRLQKQQQSLSQFQAPLQQQQPQQQPAYYDIFGNPISQDEYLQYQYQQDQEQAMAQQRWLDQQQEQQQLAEQQYFQQQQQAAAAASALQQQQTAANMQQQQQQPADFQQPLPTGSNNPFSMDNLERQKQEQQHAQLQRQQEEARQQQEQLKLQQLQRQQQEEAQLHQKRQEEAQLQQQQAQLLQQQAQFQQQQPLKQTRTGNQSISDKYSDLNTLLATGTGIDTFGNTGEARIPAQHTKTGTFINSQGTGYKQVTNEPKNNPFLSNQYTGLPSTNIVPTQTGYGFGNQPQSPPTNSPQQNPTGISYSQPQQQQQPQQQPQYMQNFQQQQPQYAQNFQQQPQYTQNYQQQPQYIQPHQQQQQQQQQQQQQQGYTPDQGVSLIDL
notes: epsin Ent2, Saccharomyces cerevisiae, endogenous locus tagged with mNeonGreen; also called Ent2-WT-mNeonGreen; Ent2p; source: endogenously tagged, S. cerevisiae MK100, in living cells

One data set has as its target T1, ScChc-NTD (Saccharomyces cerevisiae, UniProt P22137).
T1 construct: N-terminal domain (ScChc-NTD, 1–369) was cloned in a pETM-30 vector; His-GST (TEV site); made in house; host or cells: E. coli BL21 (DE3)
T1 sequence (P22137 1-369): B2 chain
Put plainly: Native MS titration of Ent5.1, 1.75 µM protein in 200 mM NH4AcO pH 9.0. It is filed as binding. As to conditions: global non-linear square fitting of the five measured fractions, four independent sites with the same affinity; read-out: microscopic KD. Here is the method: ScChc-NTD stocks were doubly buffer-exchanged into a 200 mM NH4AcO, pH 9.0 buffered solution by two subsequent runs on P6 biospins (BioRad); the protein concentration was determined photometrically (ε280 nm = 26,930 M^−1cm^−1) and the protein was diluted into 20 µl aliquots. Final samples contained 1.75 µM protein. Samples for competition experiments were prepared similarly for constant (20 µM) Ent1 and varying (0, 5, 10, 15, 20, 25, 30 and 50 µM) Ent2 concentrations and vice versa. Mass measurements. Samples were placed into gold-coated capillaries and after ionization by nano-electrospraying mass-measured in a QE-UHMR orbitrap mass spectrometer (Thermo Fisher Scientific) as follows: 1. establishment of a (“wet”) spray using a capillary voltage of 1.10-1.15 kV but with the syringe locked as to guarantee a relatively high backing pressure. 2. […] By doing so, success in the sense of as least as possible unspecific clusters could be easily monitored by spectrum appearance and distinct downward steps of the total ion current (TIC). […]
The processed output of the native MS interaction data consists of the relative fractions of CHC bound to different numbers of peptides. In this case, we detected CHC bound to up to four peptides. […]
To average the measured fractions related to similar free ligand concentrations, we used log-spaced intervals with base 1.1 starting at 0.011 μM. […]

The target in data set [1] is B2. The data set can be described thus: nanoDSF thermal shift; ScChc-NTD 8 µM incubated with eleven peptide concentrations (1:1 dilutions) for 15 min, heated 20-95 °C at 1 °C/min, SEC buffer (50 mM Tris pH 9, 150 mM NaCl, 0.5 mM TCEP); apparent KD from the Tm shift model, one to one binding assumed, global average over all boxes. As to conditions: both partners purified.

Data set [2] deals with the molecule itself. Put plainly: crystal structure; sitting drop; NTD incubated with excess peptide (between 23 and 40 fold) for 15 min at room temperature (21 °C) before setting up plates.
Data set [3] addresses B2. The data set can be described thus: native MS; ScChc-NTD 1.75 µM in 200 mM NH4AcO pH 9.0, Ent5.1 peptide up to 100 µM. The conditions noted are these: both partners purified.
Data set [4] addresses T2, Clathrin heavy chain fused to mScarlet (Chc-mScarlet), wild type (Saccharomyces cerevisiae, UniProt P22137 1-1653).
T2 construct: Clathrin heavy chain, Saccharomyces cerevisiae, the ORF of CHC1 fused in the 3' with mScarlet; also called Chc1-mScarlet; ScCHC-mScarlet; not shown: mScarlet, C-terminal, kept
The data set can be described thus: FRET or BRET; acceptor photobleaching FRET in living yeast cells at endocytic patches stalled with Latrunculin A, donor mNeonGreen on Ent1/Ent2, acceptor mScarlet on Chc, 21 °C; trimmed mean FRET efficiency. The conditions noted are these: partners not purified.

The target of data set [5] is T3, Chc-mScarlet Arrestin box mutant (Q195A, I197T, K251E) (Saccharomyces cerevisiae, UniProt P22137 1-1653, Q195A | I197T | K251E).
T3 construct: Clathrin heavy chain, Saccharomyces cerevisiae, the ORF of CHC1 fused in the 3' with mScarlet, Arrestin box mutant; also called Arr mutant; source: S. cerevisiae MK100, mutated plasmid pRS315-5'UTR CHC-mScarlet, endogenous CHC1 knocked out, in living cells; not shown: mScarlet, C-terminal, kept
Described as above. As to conditions: partners not purified.

Data set [6] has as its target T4, Chc-mScarlet Clathrin and Arrestin box mutant (Cla+Arr) (Saccharomyces cerevisiae, UniProt P22137 1-1653, K63E | I87D | Q89A | K98E | Q195A | I197T | K251E).
T4 construct: Clathrin heavy chain, Saccharomyces cerevisiae, the ORF of CHC1 fused in the 3' with mScarlet, Clathrin and Arrestin box mutant; source: S. cerevisiae MK100, mutated plasmid pRS315-5'UTR CHC-mScarlet, endogenous CHC1 knocked out, in living cells; not shown: mScarlet, C-terminal, kept
The data set is described as above. The conditions noted are these: partners not purified.

Take `CC[C@H](C)[C@H](N)C(=O)N1CCC[C@H]1C(=O)N[C@@H](CC(=O)O)C(=O)N[C@@H](CC(C)C)C(=O)N[C@H](C(=O)N[C@@H](CC(=O)O)C(=O)N[C@@H](CC(C)C)C(=O)N[C@@H](CC(=O)O)C(=O)N[C@@H](CC(=O)O)C(=O)O)[C@@H](C)CC` (single isomer, unassigned) [Ent5.1]: the Kd on ScChc-NTD amounted to 39.1 µM.

For B1, the Kd in data set [1] is approximately 311 µM.

Take B2: the binding result in data set [2] is on record as “binds”.

Take B3: in data set [1], the Kd is approximately 598 µM.

Take B4: the Kd in data set [1] is approximately 245 µM.

On to B5, for which the “stoichiometry N” value in data set [3] turned out to be 3. The Kd in data set [1] is approximately 34 µM.

As for B6, the FRET efficiency was 9.02% in data set [4], 6.7% in data set [5] and 6.1% in data set [6].
